B1: CDC14A (parent)
chain: GPHPKSKIENGYPLHAPEAYFPYF
B2: PPFIA4 (parent)
chain: PGVHRRYSALREESAKDWETSPLP
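Also: lentivirally expressed fusions sorted by FACS into six bins by GFP to DsRed ratio, PSI derived from sequencing read proportions per bin multiplied by bin number.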

In the first data set the parent is B1. Kind of data set: protein stability index of a GFP-peptide fusion (GPS, HEK-293T) (PSI 1-6); higher = more stable. The following applies: c terminus: a fixed tail appended.
For the variant GPHPKSKIERGYPLHAPEAYFPYF [N10R], the protein stability index worked out at 1.55.
Take GPHPKSKIENGYPLHAPEIYFPYF [A19I]: the protein stability index stood at 2.38.
As for IPHPKSKIENGYPLHAPEAYFPYF [G1I], the protein stability index turned out to be 1.85.
Take KPHPKSKIENGYPLHAPEAYFPYF [G1K]: the protein stability index is 1.57.
Same read-out and setting: then MPHPKSKIENGYPLHAPEAYFPYF [G1M], with 2.51; and GPHPKWKIENGYPLHAPEAYFPYF [S6W], with 1.88.
For the variant GPHPKQKIENGYPLHAPEAYFPYF [S6Q], the protein stability index was 2.22.
Turning to GPHPKAKIENGYPLHAPEAYFPYF [S6A], the protein stability index was 2.36.
On to GPHPKSKIENGYPLHAPEAYFPTF [Y23T], for which the protein stability index stood at 3.
The same measure, in the same setting: then GPHPKSKIENGYPLHAPEAYFPEF [Y23E], with 3.4.
Consider GPHPKSKIENGYPLHAPEAYFPAF [Y23A], for which the protein stability index turned out to be 2.93.
As for GLHPKSKIENGYPLHAPEAYFPYF [P2L], the protein stability index turned out to be 2.29.
For the variant GKHPKSKIENGYPLHAPEAYFPYF [P2K], the protein stability index was 1.94.
As to GTHPKSKIENGYPLHAPEAYFPYF [P2T], the protein stability index stood at 2.17.
GPHPKSKIENGYPLHAPEAYFPYY [F24Y]: the protein stability index is 2.6.
On the same count and under the same terms, next, GPHPKSKIENGYPLHAPEAYFPYI [F24I]: 2.92; GPHPKSKIENGYPLHAPEAYFPYV [F24V]: 2.75; GPHPKSKIENGEPLHAPEAYFPYF [Y12E]: 3.56.
On the same count and under the same terms, next, GPHPKSKIENGYPKHAPEAYFPYF [L14K]: 2.4; GPHPKSKIENGYPNHAPEAYFPYF [L14N]: 2.81.
Turning to GPHPKSKIENGYPFHAPEAYFPYF [L14F], the protein stability index was 2.02.
Regarding GPHPKSKIENGYPVHAPEAYFPYF [L14V], the protein stability index turned out to be 2.11.
For the variant GPHPKSKIENGYPLHAPEAYFQYF [P22Q], the protein stability index stood at 2.47.
In the case of GPHPKSKIENGYVLHAPEAYFPYF [P13V], the protein stability index is 2.05.
GPHPKSKIENGYHLHAPEAYFPYF [P13H]: the protein stability index came out at 1.92.
Same read-out and setting: then GPHPKSKIENGYPLNAPEAYFPYF [H15N], with 2.37; and GPHPKSKIENGYPLHRPEAYFPYF [A16R], with 2.35; and GPHPKSKIENGYPLHASEAYFPYF [P17S], with 1.87.
Still for that read-out and setting: next, GPHPKSKIENGYPLHAEEAYFPYF [P17E]: 2.11; GPHPKSKISNGYPLHAPEAYFPYF [E9S]: 2.21; GPHPKSKIWNGYPLHAPEAYFPYF [E9W]: 1.77.
Turning to GPHPKSKIHNGYPLHAPEAYFPYF [E9H], the protein stability index turned out to be 2.29.
Still for that read-out and setting: then GPHPKSKIENGYPLHAPMAYFPYF [E18M], with 1.45; and GPHPKSKIENGYPLHAPWAYFPYF [E18W], with 1.56; and GPHPKSKIENGYPLHAPCAYFPYF [E18C], with 1.65.
As for GPHPKSKIENGYPLHAPSAYFPYF [E18S], the protein stability index is 2.28.
Same read-out and setting: next, GPHPKSKIENGYPLHAPEALFPYF [Y20L]: 3.1; GPHWKSKIENGYPLHAPEAYFPYF [P4W]: 2.08; GPHPKSEIENGYPLHAPEAYFPYF [K7E]: 2.27.
Still for that read-out and setting: then GPHPKSAIENGYPLHAPEAYFPYF [K7A], with 2.33.
Still for that read-out and setting: then GPHPKSYIENGYPLHAPEAYFPYF [K7Y], with 1.84; and GPHPDSKIENGYPLHAPEAYFPYF [K5D], with 2.08; and GPHPASKIENGYPLHAPEAYFPYF [K5A], with 2.26.
For the variant GPHPKSKIENFYPLHAPEAYFPYF [G11F], the protein stability index was 1.72.
Still for that read-out and setting: then GPHPKSKIENRYPLHAPEAYFPYF [G11R], with 2.5; and GPLPKSKIENGYPLHAPEAYFPYF [H3L], with 2.19.

Variants of B2 are the subject of the next data set. The data set is described as above. Particulars: c terminus: a fixed tail appended.
Take PGVHRRYSALREESAKDWETSPLS [P24S]: the protein stability index is 3.83.
PGVHRRYSALREESAKDWETSPLM [P24M]: the protein stability index amounted to 3.97.
Same read-out and setting: then PGVHRRYSALREESAKDWELSPLP [T20L], with 3.36.
Turning to PGVHRRYSALREESAKDWEFSPLP [T20F], the protein stability index amounted to 2.71.
The same measure, in the same setting: next, PGVHRRYSALREESAKDWEVSPLP [T20V]: 2.73; PGVHRRYSALREESAKDWEGSPLP [T20G]: 4.55.
As for PGVHRRYSALREESAKDWEKSPLP [T20K], the protein stability index was 4.17.
Regarding PGVHRRYSALREESAKDWECSPLP [T20C], the protein stability index was determined as 3.75.
On the same count and under the same terms, then PGVHRRYSALREESAKDWEQSPLP [T20Q], with 4.49.
PGVHRRYSALREESAKDWEHSPLP [T20H]: the protein stability index was 4.47.
Still for that read-out and setting: next, PGVHRRYSALREESAKDWETSLLP [P22L]: 3.67; PGVHRRYSALREESAKDWETSTLP [P22T]: 3.04; PGVHRRYYALREESAKDWETSPLP [S8Y]: 3.79.
Same read-out and setting: next, PGVHRRYCALREESAKDWETSPLP [S8C]: 3.16; PGVHRRYIALREESAKDWETSPLP [S8I]: 3.62.
In the case of PGVHRRYLALREESAKDWETSPLP [S8L], the protein stability index came to 3.54.
PGVHRRYQALREESAKDWETSPLP [S8Q]: the protein stability index is 4.86.
PGVHRRYKALREESAKDWETSPLP [S8K]: the protein stability index came to 4.64.
Still for that read-out and setting: next, PGVHRRYEALREESAKDWETSPLP [S8E]: 4.35.
Same read-out and setting: next, PGVHRRYFALREESAKDWETSPLP [S8F]: 3.08; PGVHRRYGALREESAKDWETSPLP [S8G]: 4.23; PGVHRRYWALREESAKDWETSPLP [S8W]: 2.08.
With PGVHRRYRALREESAKDWETSPLP [S8R], the protein stability index is 4.07.
Same read-out and setting: next, PGVHRRYVALREESAKDWETSPLP [S8V]: 3.67; PGLHRRYSALREESAKDWETSPLP [V3L]: 3.66; PGDHRRYSALREESAKDWETSPLP [V3D]: 4.89.
As to PGFHRRYSALREESAKDWETSPLP [V3F], the protein stability index was determined as 4.02.
Still for that read-out and setting: then PGYHRRYSALREESAKDWETSPLP [V3Y], with 3.55; and PGCHRRYSALREESAKDWETSPLP [V3C], with 4.08.
As to PGNHRRYSALREESAKDWETSPLP [V3N], the protein stability index was 4.45.
The same measure, in the same setting: next, PGSHRRYSALREESAKDWETSPLP [V3S]: 3.89.
Same read-out and setting: next, PGEHRRYSALREESAKDWETSPLP [V3E]: 4.33.
As for PGHHRRYSALREESAKDWETSPLP [V3H], the protein stability index worked out at 4.44.
Same read-out and setting: then PGVPRRYSALREESAKDWETSPLP [H4P], with 4.33.
For PGVARRYSALREESAKDWETSPLP [H4A], the protein stability index stood at 4.25.
For the variant PGVDRRYSALREESAKDWETSPLP [H4D], the protein stability index came out at 4.37.
On the same count and under the same terms, then PGVVRRYSALREESAKDWETSPLP [H4V], with 3.8; and PGVMRRYSALREESAKDWETSPLP [H4M], with 4.49.
PGVIRRYSALREESAKDWETSPLP [H4I]: the protein stability index worked out at 4.14.
On the same count and under the same terms, next, PGVLRRYSALREESAKDWETSPLP [H4L]: 3.77.
Turning to PGVHRRYSALREESAKDWETSPFP [L23F], the protein stability index was 4.27.
Still for that read-out and setting: next, PGVHRRYSALREESAKDWETSPMP [L23M]: 4.79; PGVHRRYSALREESAKDWETSPAP [L23A]: 4.67; PGVHRRYSALREESAKDWETSPRP [L23R]: 4.25.
PGVHRRYSALREESAKDWETSPDP [L23D]: the protein stability index was 4.55.
Same read-out and setting: then PGVHRRYSALREEKAKDWETSPLP [S14K], with 5.
On to PGVHRRYSALREEIAKDWETSPLP [S14I], for which the protein stability index is 4.05.
On the same count and under the same terms, then PGVHRRYSALREEVAKDWETSPLP [S14V], with 3.92.

(Values after the supplement of paper PMC10567573.)
